We go through 1 variant from IntAct's records for PubMed 25991726.

The labels stand for the following.
B1: Ribosome maturation protein SBDS (Homo sapiens), Q9Y3A5 (parent)
chain: MSIFTPTNQIRLTNVAVVRMKRAGKRFEIACYKNKVVGWRSGVEKDLDEVLQTHSVFVNVSKGQVAKKEDLISAFGTDDQTEICKQILTKGEVQVSDKERHTQLEQMFRDIATIVADKCVNPETKRPYTVILIERAMKDIHYSVKTNKSTKQQALEVIKQLKEKMKIERAHMRLRFILPVNEGKKLKEKLKPLIKVIESEDYGQQLEIVCLIDPGCFREIDELIKKETKGKGSLEVLNLKDVEEGDEKFE
partner: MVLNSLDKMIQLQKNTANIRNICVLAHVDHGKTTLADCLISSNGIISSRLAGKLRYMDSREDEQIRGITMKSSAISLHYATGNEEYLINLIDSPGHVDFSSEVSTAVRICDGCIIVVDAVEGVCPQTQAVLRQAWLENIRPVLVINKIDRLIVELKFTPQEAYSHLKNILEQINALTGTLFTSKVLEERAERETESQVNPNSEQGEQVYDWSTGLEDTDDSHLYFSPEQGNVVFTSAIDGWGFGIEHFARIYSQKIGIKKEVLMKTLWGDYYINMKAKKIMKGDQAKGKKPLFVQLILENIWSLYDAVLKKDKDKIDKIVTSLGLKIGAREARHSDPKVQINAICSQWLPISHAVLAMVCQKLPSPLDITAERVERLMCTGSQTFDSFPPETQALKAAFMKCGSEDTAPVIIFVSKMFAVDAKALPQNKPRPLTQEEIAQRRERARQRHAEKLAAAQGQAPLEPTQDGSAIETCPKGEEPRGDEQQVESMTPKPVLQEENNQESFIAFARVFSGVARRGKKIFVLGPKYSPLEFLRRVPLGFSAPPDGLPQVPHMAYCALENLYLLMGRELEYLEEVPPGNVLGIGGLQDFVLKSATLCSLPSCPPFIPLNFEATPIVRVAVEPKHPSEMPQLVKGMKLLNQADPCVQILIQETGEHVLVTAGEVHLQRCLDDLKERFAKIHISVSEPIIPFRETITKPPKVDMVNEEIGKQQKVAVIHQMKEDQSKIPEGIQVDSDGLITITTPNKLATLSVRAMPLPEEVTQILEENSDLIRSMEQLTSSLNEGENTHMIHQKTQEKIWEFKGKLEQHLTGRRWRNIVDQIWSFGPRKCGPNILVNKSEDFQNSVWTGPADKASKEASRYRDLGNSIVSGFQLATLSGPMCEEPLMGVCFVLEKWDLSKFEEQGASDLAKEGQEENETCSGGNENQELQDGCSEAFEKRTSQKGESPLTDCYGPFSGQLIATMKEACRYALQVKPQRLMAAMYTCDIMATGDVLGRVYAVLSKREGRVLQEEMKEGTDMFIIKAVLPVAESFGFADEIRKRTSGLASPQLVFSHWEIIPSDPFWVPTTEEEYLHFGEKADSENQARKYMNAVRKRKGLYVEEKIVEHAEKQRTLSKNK

In the assay the parent is B1. The note with it: with efl1_human EFL1, Q7Z2Z2.
Regarding S143L, the “effect of a mutation on the interaction” value is “decreasing interaction strength”.
